First the molecules themselves.
B1: 33C12huVH2 + huVL2(P07301) (antibody, V domains shown)
VH: EVQLVESGGGLVKPGGSLRLSCAASGFTFSDYTMSWVRQAPGKGLEWVATISTGGSYTYYPDSVKGRFTISRDNAKNTLYLQMSSLRAEDTAVYYCARDGGYDGDYFDYWGQGTTVTVSS
VL: ENVLTQSPATLSLSPGERATLSCRASSSVSSSYLHWYQQKPGQAPRLWIYRTSNLASGVPARFSGSGSGTDFTLTISRLEPEDFAVYYCQQYSGYPLTFGGGTKLEIK
notes: Humanized 33C12
B2: 33C12huVH3 + huVL1(P07300) (antibody, V domains shown)
VH: B1 VH with P61A, T78S, S84N
VL: B1 VL with L21M, F72Y, L79V
notes: Humanized 33C12
B3: 33C12huVH3 + huVL3(P07304) (antibody, V domains shown)
VH: B1 VH with P61A, T78S, S84N
VL: B1 VL with N2I, W48L, S57T, V59I, A61D
notes: Humanized 33C12
B4: 33C12huVH1 + huVL1(P07298) (antibody, V domains shown)
VH: B1 VH with E1D, A97T
VL: B1 VL with L21M, F72Y, L79V
notes: Humanized 33C12
B5: 33C12huVH2 + huVL3(P07303) (antibody, V domains shown)
VH: B1 VH
VL: B1 VL with N2I, W48L, S57T, V59I, A61D
notes: Humanized 33C12
B6: 33C12huVH2 + huVL1(P07299) (antibody, V domains shown)
VH: B1 VH
VL: B1 VL with L21M, F72Y, L79V
notes: Humanized 33C12
B7: 33C12huVH3 + huVL2(P07302) (antibody, V domains shown)
VH: B1 VH with P61A, T78S, S84N
VL: B1 VL
notes: Humanized 33C12
B8: 12E12-huVH6 + huVL2(P08937) (antibody, V domains shown)
VH: QVQLVQSGAEVKKPGASVKVSCKASGYTITDFYIHWVRQAPGQGLEWIGRVDPEDGNTEYAPNFQDRATMTTDTSTSTAYLELSSLRSEDTAVYYCSTWDGFSYFDYWGQGTTVTVSS
VL: QAVVTQEPSLTVSPGGTVTLTCRSSTGPVTTNNYANWVQQKPGQAFRGLIGGTNDRAPGVPARFSGSLLGGKAALTLSGAQPEDEAEYYCALWYRNHWVFGGGTKLTVL
notes: Humanized 12E12
B9: 12E12-huVH8 + huVL2(P08939) (antibody, V domains shown)
VH: EVQLVQSGAEVKKPGATVKISCKVSGYTITDFYIHWVQQAPGKGLEWMGRVDPEDGNTEYAPNFQDRVTITADTSTDTAYMELSSLRSEDTAVYYCSTWDGFSYFDYWGQGTTVTVSS
VL: B8 VL
notes: Humanized 12E12
B10: 12E12-huVH6 + huVL4(P08940) (antibody, V domains shown)
VH: B8 VH
VL: EAVVTQSPATLSLSPGERATLSCRSSTGPVTTNNYANWVQQKPGQAFRGLIGGTNDRAPGIPARFSGSGSGTDTTLTISSLQPEDFAVYYCALWYRNHWVFGGGTKLEIK
notes: Humanized 12E12
B11: 11G2huVH4 + huVL2(P07269) (antibody, V domains shown)
VH: QVQLVQSGAEVKKPGASVKVSCKASGYTFITYDINWVRQAPGQGLEWIGWIYPRDGNTQYAQKFQGRVTMTTDTSTSTAYMELRSLRSDDTAVYYCARGDRDYGYFDVWGQGTTVTVSS
VL: DIQMTQSPSSLSASVGDRVTITCRASQDISNYLNWYQQKPGKAPKLLIYFKSKLHSGVPSRFSGSGSGTDFTLTISSLQPEDFATYYCQQGNTLPLTFGGGTKLEIK
notes: Humanized 11G2
B12: 11G2huVH5 + huVL3(P07275) (antibody, V domains shown)
VH: B11 VH with P41T, T72R, D73N, T76I, R84S, D89E
VL: B11 VL with R24Q, H55E, S56T, L73F, F83I
notes: Humanized 11G2

Numbering of substitutions follows the chain as printed. “And” between values parts separate entries of the source, which are not always exact repeats. Identical values can stand only once.

The values below come from US20240392024A1 (SHANGHAI CELGEN BIO PHARMACEUTICAL, published 2024).

The target of the first experiment is T1, TNFR2-His (Sino Biological, 10417-H08H, NP_001057.1 Met1-Asp257, with multi-histidine tag expressed on … (human, UniProt P20333 23-257)).
T1 construct: range 1-257; Bought protein; also called recombinant human TNFR2 protein; TNFR2-His antigen; not shown: C-terminal multi-histidine tag
T1 sequence (looked up): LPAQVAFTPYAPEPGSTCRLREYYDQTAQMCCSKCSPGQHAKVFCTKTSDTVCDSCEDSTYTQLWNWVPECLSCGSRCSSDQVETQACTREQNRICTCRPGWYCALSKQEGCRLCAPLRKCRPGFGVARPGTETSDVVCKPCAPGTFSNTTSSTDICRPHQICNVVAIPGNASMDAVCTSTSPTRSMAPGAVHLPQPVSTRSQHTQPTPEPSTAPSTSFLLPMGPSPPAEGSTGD
Kind of experiment: ELISA, plate coated with TNFR2-His. The method in brief:
(§1)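 EC50 values come from antibody dilution series tested by ELISA. Plates were coated with recombinant human TNFR2 bearing a C-terminal His tag and blocked before the serially diluted antibodies were added. Binding was detected with an enzyme-labelled anti-IgG secondary antibody, TMB development and a microplate reader.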
In general terms: In an ELISA, binding on a coated surface is turned into a signal by an enzyme label.
By EC50 is commonly meant the midpoint of the concentration-response curve. Regarding B1, a half-maximal response (EC50) required 0.132 mg/L.

Take B2: the concentration for a half-maximal effect (EC50) came to 0.161 mg/L. This EC50 and that of the molecule before are within 1.5-fold of each other.

On to B3, for which a half-maximal effect (EC50) was put at 0.0528 mg/L.

For B4, the EC50 came to 0.0646 mg/L.

Regarding B5, the EC50 turned out to be 0.115 mg/L.

B6 had an EC50 of 0.218 mg/L.

Consider B7, for which a half-maximal effect (EC50) was put at 0.303 mg/L.

For the next experiment, the target named is T2, human TNFR2 on the cell membrane (human, UniProt P20333 23-461).
T2 construct: whole, on cells; One molecule for all cell formats; also called TNFR2-CHO cells; CHO-TNFR2
T2 sequence (looked up): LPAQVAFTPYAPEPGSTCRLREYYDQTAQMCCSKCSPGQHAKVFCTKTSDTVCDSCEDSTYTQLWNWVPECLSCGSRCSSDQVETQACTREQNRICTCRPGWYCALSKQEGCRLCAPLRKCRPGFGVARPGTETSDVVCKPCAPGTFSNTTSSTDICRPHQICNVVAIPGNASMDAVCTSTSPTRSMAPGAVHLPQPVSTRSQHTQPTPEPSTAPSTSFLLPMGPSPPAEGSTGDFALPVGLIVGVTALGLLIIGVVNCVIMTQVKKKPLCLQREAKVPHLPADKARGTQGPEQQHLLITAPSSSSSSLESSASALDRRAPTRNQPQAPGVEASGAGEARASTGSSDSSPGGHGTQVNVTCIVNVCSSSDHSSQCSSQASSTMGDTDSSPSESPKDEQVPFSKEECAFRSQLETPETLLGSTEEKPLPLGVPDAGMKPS
In words: flow cytometry on CHO-TNFR2 cells. The method, boiled down:
(§2)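 CHO cells were transfected with a pcDNA3.4 vector carrying human TNFR2, taken through drug selection and sorted as single clones to give a line that stably overexpresses the receptor. These cells were placed in 96-deep-well plates, incubated with serially diluted antibodies, washed and then stained with a fluorescent anti-IgG secondary antibody. Flow cytometry was run on a Beckman CytoFLEX, and EC50 values were derived from the dilution series.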
In general terms: A flow cytometer gives signals particle by particle.
For B8, the EC50 is 0.0096 µg/mL and 0.064 nM.

As for B9, the EC50 is 0.0158 µg/mL and 0.106 nM.

With B10, the EC50 is 0.011 µg/mL and 0.073 nM.

For another experiment, the target named is T1, TNFR2-His (Sino Biological, 10417-H08H, …). In words: ELISA, plate coated with TNFR2-His. The source holds these as a separate data set. The method, boiled down:
as §1
In the case of B11, the response was half-maximal at 0.0544 mg/L (EC50).

The molecule B12 returned an EC50 of 0.0222 mg/L.

Another experiment shares this target. In words: ELISA, coated TNFR2-His. The method, boiled down: as §1
Molecule B11 showed an EC50 of 0.364 nM.

B12 returned an EC50 of 0.149 nM.

For B1, the EC50 worked out at 0.886 nM. Compared with the last molecule, the EC50 is about 5.9-fold higher.

In turn, B2 had an EC50 of 1.08 nM. The EC50 values of the last two molecules are within 1.5-fold of each other.

For the molecule B3, the EC50 amounted to 0.354 nM.

On to B4, for which the EC50 is 0.433 nM.

As for B5, a half-maximal response (EC50) required 0.771 nM. This EC50 lies about 1.8-fold higher than the previous one.

With B6, the EC50 was 1.46 nM.

In turn, B7 returned a half-maximal effective concentration (EC50) of 2.03 nM. This EC50 and that of the molecule before are within 1.5-fold of each other.

The next experiment has the same target. Kind of experiment: BLI, antibody captured on AHC probe, TNFR2-His in solution. The method in brief: (§3)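 Bio-layer interferometry on an Octet in Basic Kinetics mode. Antibodies at 50 nM in Q buffer (10 mM PBS pH 7.4, 0.02% Tween 20, 0.2% BSA) were held on antibody-capture sensors. The sensors were then placed in recombinant human TNFR2 diluted 2-fold in Q buffer from a top concentration of 100 nM. Kon, koff and Kd come from these kinetic association measurements.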
The Kd is a measure of binding affinity in units of concentration. Read a high Kd as a looser complex. Broadly, the koff is a measure of how fast the partners let go of each other. Low values mean slow dissociation, high ones fast dissociation. Usually kon stands for the rate constant with which the complex forms. Regarding B1, binding was put at a Kd of 17.8 nM, the dissociation rate constant (koff) was determined as 0.00279 s⁻¹ and the association rate constant (kon) came out at 157000 M⁻¹ s⁻¹.

The molecule B2 returned a Kd of 12.7 nM, a koff of 0.00223 s⁻¹ and a kon of 175000 M⁻¹ s⁻¹.

For B3, the Kd worked out at 48.7 nM, the koff was 0.00368 s⁻¹ and the kon was determined as 75600 M⁻¹ s⁻¹.

In the case of B4, binding was characterised by a dissociation constant (Kd) of 17.7 nM, the koff turned out to be 0.00171 s⁻¹ and the kon was 96400 M⁻¹ s⁻¹.

Consider B5, for which the Kd worked out at 16.3 nM, the dissociation rate constant (koff) was determined as 0.00167 s⁻¹ and the kon is 102000 M⁻¹ s⁻¹.

On to B6, for which the Kd worked out at 15.1 nM, the dissociation rate constant (koff) stood at 0.0013 s⁻¹ and the kon was 86100 M⁻¹ s⁻¹.

B7 showed a Kd of 11.9 nM, a koff of 0.00188 s⁻¹ and a kon of 158000 M⁻¹ s⁻¹.

The next experiment has as its target T2, human TNFR2 on the cell membrane. In words: flow cytometry, CHO-TNFR2 cells. The method in brief: as §2
In turn, B11 yielded an EC50 of 0.183 nM.

In turn, B12 registered an EC50 of 0.056 nM.

The molecule B1 returned an EC50 of 0.873 nM.

In turn, B2 had an EC50 of 1.44 nM.

The molecule B3 returned an EC50 of 1.08 nM. This EC50 and that of the molecule before are within 1.5-fold of each other.

As for B4, the EC50 is 0.448 nM. Against the preceding molecule, the EC50 is about 2.4-fold lower.

Molecule B5 had an EC50 of 1.12 nM.

As for B6, the 50% effective concentration (EC50) amounted to 2.27 nM.

As to B7, a half-maximal response (EC50) required 3.01 nM. This EC50 and that of the molecule before are within 1.5-fold of each other.

The target in another experiment is T1, TNFR2-His (Sino Biological, 10417-H08H, …). Kind of experiment: BLI, antibody captured on AHC probe, TNFR2 in solution. The method, boiled down:
as §3
On to B8, for which the dissociation constant Kd was 5.28 nM, the koff worked out at 0.00449 s⁻¹ and the kon is 849000 M⁻¹ s⁻¹.

B9: the dissociation constant Kd is 3.92 nM, the koff worked out at 0.00442 s⁻¹ and the kon was determined as 1.13e+06 M⁻¹ s⁻¹.

B10 registered a Kd of 4.03 nM, a koff of 0.0034 s⁻¹ and a kon of 844000 M⁻¹ s⁻¹.

A further experiment shares this target. In words: ELISA, plate coated with TNFR2-His (second test). The method, boiled down: as §1
As for B8, the EC50 is 0.0322 µg/mL and 0.216 nM.

For the molecule B9, the half-maximal effective concentration (EC50) is 0.0284 µg/mL and 0.19 nM.

B10: the 50% effective concentration (EC50) is 0.0279 µg/mL and 0.187 nM.

A further experiment has as its target T2, human TNFR2 on the cell membrane. In words: flow cytometry on CHO-TNFR2 cells. The source holds these as a separate data set. The method, boiled down:
as §2
In turn, B1 showed an EC50 of 0.13 mg/L.

B2 displayed an EC50 of 0.214 mg/L.

For B3, a half-maximal effect (EC50) was put at 0.161 mg/L. This EC50 and that of the molecule before are within 1.5-fold of each other.

In turn, B4 registered an EC50 of 0.0669 mg/L.

For the molecule B5, the EC50 is 0.167 mg/L.

In turn, B6 came in with an EC50 of 0.34 mg/L.

Take B7: the EC50 was found to be 0.449 mg/L.

The next experiment shares this target. Kind of experiment: flow cytometry on CHO-TNFR2 cells. This is another data set of the same source. The method, boiled down:
as §2
Consider B11, for which the EC50 is 0.0273 mg/L.

B12 had an EC50 of 0.0084 mg/L.

Another experiment has as its target T1, TNFR2-His (Sino Biological, 10417-H08H, …). Kind of experiment: BLI, antibody captured on AHC probe, TNFR2-His in solution. This is another data set of the same source. The method, boiled down:
as §3
A general note: BLI is a label-free optical method that tracks binding on a fibre tip over time.
With B11, the Kd was 13.5 nM, the off-rate constant (koff) worked out at 0.00379 s⁻¹ and the kon was found to be 281000 M⁻¹ s⁻¹.

In the case of B12, binding was put at a Kd of 14.1 nM, the dissociation rate constant (koff) is 0.00302 s⁻¹ and the kon stood at 213000 M⁻¹ s⁻¹.
